Experimental findings from article PMC2938955 (Biochemistry, 2010) are described below.

Experiment [1] deals with p150^Glued CAP-gly domain, wildtype (residues 19-107) (UniProt Q14203-1 19-107). Kind of experiment: SEC.
The target in experiment [2] is p150^Glued CAP-gly domain (residues 19-107) G59A (UniProt Q14203-1 19-107, G59A). The experiment can be described thus: SEC. (SEC sorts molecules by how far they enter the pores of the column.)
p150^Glued CAP-gly domain (residues 19-107) G59A, sequence (Q14203 19-107 G59A): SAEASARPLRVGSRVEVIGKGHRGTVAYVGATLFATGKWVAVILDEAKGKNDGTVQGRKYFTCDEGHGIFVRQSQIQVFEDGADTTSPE

p150^Glued CAP-gly domain, wildtype (residues 19-107), sequence (Q14203 19-107): as the sequence (Q14203 19-107 G59A) above, with A41G counted along it

B1: EB1 fragment (residues 194 to 268) (domain or fragment, UniProt Q15691 194-268, looked up)
chain: AELMQQVNVLKLTVEDLEKERDFYFGKLRNIELICQENEGENDPVLQRIVDILYATDEGFVIPDEGGPQEEQEEY
B1: the binding result in experiment [1] and in experiment [2] was “binds” in each case.
